Measured values reported in publication PMC10333360, “Establishing mammalian GLUT kinetics and lipid composition influences in a reconstituted-liposome system” (Nature Communications, 2023).

Key:
purified protein = substrate: OC[C@H]1OC(O)[C@H](O)[C@@H](O)[C@@H]1O; test: purified protein
[1] = substrate: OC[C@H]1OC(O)[C@H](O)[C@@H](O)[C@@H]1O; test: zero-trans transport kinetics in proteoliposomes (KM); type: biochemical, Homo sapiens

Protein	Km (purified protein)	Km [1]
hGLUT3 (Homo sapiens) (protein) MGTQKVTPALIFAITVATIGSFQFGYNTGVINAPEKIIKEFINKTLTDKGNAPPSEVLLTSLWSLSVAIFSVGGMIGSFSVGLFVNRFGRRNSMLIVNLLAVTGGCFMGLCKVAKSVEMLILGRLVIGLFCGLCTGFVPMYIGEISPTALRGAFGTLNQLGIVVGILVAQIFGLEFILGSEELWPLLLGFTILPAILQSAALPFCPESPRFLLINRKEEENAKQILQRLWGTQDVSQDIQEMKDESARMSQEKQVTVLELFRVSSYRQPIIISIVLQLSQQLSGINAVFYYSTGIFKDAGVQEPIYATIGAGVVNTIFTVVSLFLVERAGRRTLHMIGLGGMAFCSTLMTVSLLLKDNYNGMSFVCIGAILVFVAFFEIGPGPIPWFIVAELFSQGPRPAAMAVAGCSNWTSNFLVGLLFPSAAHYLGAYVFIIFTGFLITFLAFTFFKVPETRGRTFEDITRAFEGQAHGADRSGKDGVMEMNSIEPAKETTTNV	1400 µM	
GLUT1 (Homo sapiens) (protein) MEPSSKKLTGRLMLAVGGAVLGSLQFGYNTGVINAPQKVIEEFYNQTWVHRYGESILPTTLTTLWSLSVAIFSVGGMIGSFSVGLFVNRFGRRNSMLMMNLLAFVSAVLMGFSKLGKSFEMLILGRFIIGVYCGLTTGFVPMYVGEVSPTALRGALGTLHQLGIVVGILIAQVFGLDSIMGNKDLWPLLLSIIFIPALLQCIVLPFCPESPRFLLINRNEENRAKSVLKKLRGTADVTHDLQEMKEESRQMMREKKVTILELFRSPAYRQPILIAVVLQLSQQLSGINAVFYYSTSIFEKAGVQQPVYATIGSGIVNTAFTVVSLFVVERAGRRTLHLIGLAGMAGCAILMTIALALLEQLPWMSYLSIVAIFGFVAFFEVGPGPIPWFIVAELFSQGPRPAAIAVAGFSNWTSNFIVGMCFQYVEQLCGPYVFIIFTVLLVLFFIFTYFKVPETKGRTFDEIASGFRQGGASQSDKTPEELFHPLGADSQV	2000 µM	
hGLUT4 (Homo sapiens) (protein) MPSGFQQIGSEDGEPPQQRVTGTLVLAVFSAVLGSLQFGYNIGVINAPQKVIEQSYNETWLGRQGPEGPSSIPPGTLTTLWALSVAIFSVGGMISSFLIGIISQWLGRKRAMLVNNVLAVLGGSLMGLANAAASYEMLILGRFLIGAYSGLTSGLVPMYVGEIAPTHLRGALGTLNQLAIVIGILIAQVLGLESLLGTASLWPLLLGLTVLPALLQLVLLPFCPESPRYLYIIQNLEGPARKSLKRLTGWADVSGVLAELKDEKRKLERERPLSLLQLLGSRTHRQPLIIAVVLQLSQQLSGINAVFYYSTSIFETAGVGQPAYATIGAGVVNTVFTLVSVLLVERAGRRTLHLLGLAGMCGCAILMTVALLLLERVPAMSYVSIVAIFGFVAFFEIGPGPIPWFIVAELFSQGPRPAAMAVAGFSNWTSNFIIGMGFQYVAEAMGPYVFLLFAVLLLGFFIFTFLRVPETRGRTFDQISAAFHRTPSLLEQEVKPSTELEYLGPDEND		8200 µM
